# Assay results published in patent US20240132589A1 (ONCORESPONSE, published 2024).
# What was measured:
# [1] = target: T1, LILRB2-Fc protein (human, UniProt Q8N423 22-460, limits assumed); assay: blocking ELISA, LILRB2-Fc binding to coated monomer HLA-G; Exp II
# T1 construct: also called human LILRB2-Fc; not shown: Fc part
# Method: (§1) Tumor-associated HLA-G is an HLA Class I ligand for LILRB2. Binding of HLA-G to LILRB2 induces an immune suppressive signal in LILRB2 expressing myeloid cells. To determine if the anti-LILRB2 antibodies block the HLA-G-LILRB2 interaction and prevent the induction of an inhibitory signal, blocking ELISA assays in a dose titration were performed. 384-well plates were coated with monomer HLA-G (Fred Hutchinson Cancer Research Center, No. bHLA-G) at a concentration of 5 μg/mL, diluted in PBS, then plates were incubated at RT for 1 hour. Plates were rinsed with Wash Buffer three times, then blocked with Blocking Buffer A for 30 minutes at RT. During blocking incubation step, LILRB2-Fc protein and antibody titrations were prepared in Blocking Buffer A. LILRB2-Fc protein was then incubated with antibody titrations for 30 minutes at RT to allow for binding prior to addition onto plate. Plates were rinsed three times with Wash Buffer, then 25 μL of protein/antibody mixture was added per well and incubated for 1 hour at RT. Following antibody incubation, plates were washed three times with Wash Buffer. Anti-human IgG Fc-HRP secondary antibody was diluted and added at 25 μL/well. Plates were incubated in the dark for 1 hour at RT. Following secondary antibody incubation, plates were washed four times with Wash Buffer. 25 μL/well ultra-neat TMB was added per well for development and incubated for 5 minutes at RT. Reaction was stopped using 0.3 M HCl (25 μL/well). Absorbance was read at 450 nm using the Envision. The IC₅₀ for HLA-G blocking by clone B2A-IgG4 was 0.066 μg/mL.
# (§2) Select humanized IgG4 variant antibodies were tested for their ability to block binding of human LILRB2-Fc to monomer HLA-G by ELISA, using the method described in Example 7.
# [2] = target: T1, LILRB2-Fc protein; assay: blocking ELISA, LILRB2-Fc binding to coated monomer HLA-G; Exp I
# Method: as §1, §2
# [3] = target: T2, Recombinant human LILRB2 protein (ELISA antigen) (human, UniProt Q8N423 22-460); assay: ELISA, plate-coated recombinant human LILRB2
# T2 construct: also called LILRB2-His; recombinant LILRB2
# Method: (§3) To confirm binding to human and cynomolgus LILRB2, antibodies in supernatants were evaluated for binding by enzyme-linked immunosorbent assay (ELISA). Recombinant LILRB2 proteins (human: SEQ ID NO: 48; cynomolgus) were diluted in PBS to 2 μg/mL and added to 384-well high-binding ELISA plates (Greiner Bio-One Microlon™) at 25 μL/well and incubated at 4° C. overnight. The plates were washed three times with Wash Buffer (0.05% Tween® 20 in PBS), using a microplate washer and then blocked with 90 μL/well of ELISA Blocking Buffer A (1% BSA in PBS) for 1 hour at room temperature (RT). After blocking, 25 μL/well of LILRB2 antibodies or isotype control were added to the plates and incubated for 1 hour at RT. After primary antibody binding, plates were washed three times with Wash Buffer using a microplate washer. Secondary detection antibody (HRP-goat anti-rabbit Fab fragment) was diluted to 1:3000 in assay diluent (1% BSA in PBS) and 25 μL/well was added to plates and incubated at RT protected from light for 1 hour. Following incubation, plates were washed four times with Wash Buffer, using a microplate washer. After removal of the final wash, 25 μL/well of 1-Step™ Ultra TMB-ELISA Substrate Solution (Thermo Fisher, No. 34028) was added and plates were incubated for 5-10 min at RT, protected from light. After development, the reaction was stopped by addition of 25 μL/well of 0.3 M HCl, and plates were read using an EnVision (Perkin Elmer) microplate reader at 450 nm. EC₅₀ values were calculated based on log concentration of the primary antibodies at optical density at 450 nm.
# (§4) Select humanized variant antibodies were purified and tested for their ability to bind human LILRB2 by ELISA, using the method described in Example 2, and binding to HEK293T cells expressing human LILRB2, using the method described in Example 4. Representative data are shown for IgG4 variants in Table 6.
# [4] = target: T2, Recombinant human LILRB2 protein (ELISA …); assay: ELISA, immobilized LILRB2-His; conditioned media of transient transfections
# Method: as §3
# Twenty-five IgG4 variants were expressed in mammalian cell culture as a combinatorial library of the five light and five heavy chains. In addition, B2A-IgG4 was included as a transfection control. The conditioned media from these transient transfections were assayed for human IgG concentration. A plate-based ELISA (see Example 2) was performed in which LILRB2-His was immobilized, and binding of humanized mAb variants was detected via an anti-human IgG4 HRP-labeled secondary antibody. The parental rabbit/human chimera clone transfection served as the benchmark EC₅₀ positive control.
# [5] = target: T3, Human LILRB2 on stably transduced HEK293T cells (human, UniProt Q8N423 22-597); assay: flow cytometry, HEK293T cells stably expressing human LILRB2
# T3 construct: Lentiviral transduction (G&P Biosciences LTV2992); also called HEK293T-LILRB2; LILRB2-expressing HEK293T cells
# Method: To confirm binding of LILRB2 antibodies, flow cytometry binding assays were performed using HEK293T cells stably expressing human LILRB2 (Example 3). […] The B2A-IgG1 and B2A-IgG4 chimeras bound the LILRB2-expressing HEK293T cells, with equivalent EC₅₀ values of 0.21 nM and 0.30 nM respectively.
# as §4
# T2 sequence (Q8N423 other isoform, or with tags, fused parts or gaps limits assumed): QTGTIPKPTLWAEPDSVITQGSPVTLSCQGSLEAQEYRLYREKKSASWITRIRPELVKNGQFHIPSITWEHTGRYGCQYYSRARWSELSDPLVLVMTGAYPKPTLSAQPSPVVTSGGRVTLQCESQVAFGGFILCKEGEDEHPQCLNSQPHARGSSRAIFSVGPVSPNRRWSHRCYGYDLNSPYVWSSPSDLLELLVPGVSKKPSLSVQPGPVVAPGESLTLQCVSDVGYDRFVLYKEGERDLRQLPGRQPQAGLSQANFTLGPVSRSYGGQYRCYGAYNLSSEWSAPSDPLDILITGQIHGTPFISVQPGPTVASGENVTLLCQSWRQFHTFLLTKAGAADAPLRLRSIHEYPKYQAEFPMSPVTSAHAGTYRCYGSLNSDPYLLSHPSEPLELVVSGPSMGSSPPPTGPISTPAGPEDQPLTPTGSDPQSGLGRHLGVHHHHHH
# T1 sequence (Q8N423 22-460 limits assumed): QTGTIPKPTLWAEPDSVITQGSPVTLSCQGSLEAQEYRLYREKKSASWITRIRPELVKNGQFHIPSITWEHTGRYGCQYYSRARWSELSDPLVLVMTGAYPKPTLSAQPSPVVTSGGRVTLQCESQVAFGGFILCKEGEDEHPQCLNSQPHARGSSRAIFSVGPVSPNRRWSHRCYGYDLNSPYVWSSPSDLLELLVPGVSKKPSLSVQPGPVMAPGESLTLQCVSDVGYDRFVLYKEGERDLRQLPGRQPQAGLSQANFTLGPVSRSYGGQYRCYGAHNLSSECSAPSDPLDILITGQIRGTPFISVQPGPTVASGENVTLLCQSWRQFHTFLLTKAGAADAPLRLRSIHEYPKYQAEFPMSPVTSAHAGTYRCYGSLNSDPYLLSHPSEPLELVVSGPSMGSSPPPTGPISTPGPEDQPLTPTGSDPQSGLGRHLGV
# T3 sequence (Q8N423 other isoform, or with tags, fused parts or gaps limits assumed): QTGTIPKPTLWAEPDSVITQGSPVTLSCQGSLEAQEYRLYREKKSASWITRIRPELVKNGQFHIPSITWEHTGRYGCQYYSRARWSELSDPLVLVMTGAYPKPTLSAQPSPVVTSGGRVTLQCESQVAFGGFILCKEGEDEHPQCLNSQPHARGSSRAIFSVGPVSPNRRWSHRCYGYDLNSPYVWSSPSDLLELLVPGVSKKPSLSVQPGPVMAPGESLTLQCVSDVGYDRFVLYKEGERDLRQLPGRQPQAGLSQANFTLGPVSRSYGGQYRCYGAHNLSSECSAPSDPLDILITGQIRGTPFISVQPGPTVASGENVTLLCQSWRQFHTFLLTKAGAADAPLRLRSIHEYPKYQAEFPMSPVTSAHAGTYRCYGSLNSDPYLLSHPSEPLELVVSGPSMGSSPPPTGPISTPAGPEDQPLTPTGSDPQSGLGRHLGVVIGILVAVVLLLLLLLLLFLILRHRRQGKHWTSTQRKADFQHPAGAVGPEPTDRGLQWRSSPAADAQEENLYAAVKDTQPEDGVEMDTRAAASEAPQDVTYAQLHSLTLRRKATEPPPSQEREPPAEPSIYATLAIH
IC50 [1] [ng/mL],IC50 [2] [ng/mL],EC50 [3] [ng/mL],EC50 [4] [ng/mL],BMAX [gMFI] [5] [gMFI],EC50 [5] [ng/mL],Binder
4090,4040,2,2.25,10400,0.17,"B2H4-54 (antibody, V domains shown, Humanized variant, human IgG4 / kappa) VH: EVQLLESGGGLVQPGTSLTLSCAASGFSLSTYAMSWVRQAPGKGLEWIGWIYNDGSTYYAAWAKGRFTISKDTSKTTLYLQITSLRAEDTATYFCAREGDYIGYFNIWGQGTLVTVSS VL: DIQMTQSPSSVSASVGDRVTITCQASQSIGSNLAWYQQKPGKAPKLLIYAAATLASGVPLRFSGSGSGTDFTLTISNLQPEDSATYYCQSYVSGSSDVAFGGGTKVEIK"
,,,4.96,,,"B2H4-43 (antibody, V domains shown, Humanized variant, human IgG4 / kappa) VH: EVQLLESGGRLVQPGTSLRLSCAVSGFSLSTYAMSWVRQAPGKGLEWIGWIYNDGSTYYAAWAKGRFTISKDTSKTTLYLQMNSLTVEDTATYFCAREGDYIGYFNIWGQGTLVTVSS VL: DIEMTQSPSSVSASVGDRVTLTCQASQSIGSNLAWYQQKPGQAPKLLIYAAATLASGVPSRFKGSGSGTDFTLTISSLQPEDFATYYCQSYVSGSSDVAFGGGTEVVVK"
7170,6890,2.82,,10800,0.33,"B2H4-55 (antibody, V domains shown, Humanized variant, human IgG4 / kappa) VH: EVQLLESGGGLVQPGTSLTLSCAASGFSLSTYAMSWVRQAPGKGLEWIGWIYNDGSTYYAAWAKGRFTISKDTSKTTLYLQITSLRAEDTATYFCAREGDYIGYFNIWGQGTLVTVSS VL: DVVMTQTPSSVSAALGGTVTIKCQASQSIGSNLAWYQLKPGQRPKLLIYAAATLASGGSSRFKGSGSGTDFTLTISSLEPADAATYYCQSYVSGSSDVAFGGGTEVVVK"
6760,5780,3.05,3.76,10100,0.28,"B2H4-41 (antibody, V domains shown, Humanized variant, human IgG4 / kappa) VH: EVQLLESGGRLVQPGTSLRLSCAVSGFSLSTYAMSWVRQAPGKGLEWIGWIYNDGSTYYAAWAKGRFTISKDTSKTTLYLQMNSLTVEDTATYFCAREGDYIGYFNIWGQGTLVTVSS VL: DIQMTQSPSSLSASVGDRVTITCQASQSIGSNLAWYQLKPGQRPKLLIYAAATLASGVPSRFKGSGSGTDFTLTISSLQSEDAATYYCQSYVSGSSDVAFGGGTEVVVK"
7500,7010,2.81,3.23,10500,0.35,"B2H4-24 (antibody, V domains shown, Humanized variant, human IgG4 / kappa) VH: EVQLVESGGDLATPGGSLRLSCAVSGFSLSTYAMSWVRQAPGKGLEWVGWIYNDGSTYYAAWAKGRFTISKDTSKTTVYLQMTSLRAEDTALYFCAREGDYIGYFNIWGQGTLVTVSS VL: DIQMTQSPSSVSASVGDRVTITCQASQSIGSNLAWYQQKPGKAPKLLIYAAATLASGVPLRFSGSGSGTDFTLTISNLQPEDSATYYCQSYVSGSSDVAFGGGTKVEIK"
,,,5.37,,,"B2H4-52 (antibody, V domains shown, Humanized variant, human IgG4 / kappa) VH: EVQLLESGGGLVQPGTSLTLSCAASGFSLSTYAMSWVRQAPGKGLEWIGWIYNDGSTYYAAWAKGRFTISKDTSKTTLYLQITSLRAEDTATYFCAREGDYIGYFNIWGQGTLVTVSS VL: DVVMTQSPSSVSASLGDRVTITCQASQSIGSNLAWYQQKPGQAPKLLIYAAATLASGVPSRFKGSGSGTDFTLTITSLQPADFATYYCQSYVSGSSDVAFGGGTKVEIK"
7120,6520,2.3,3.61,10500,0.31,"B2H4-45 (antibody, V domains shown, Humanized variant, human IgG4 / kappa) VH: EVQLLESGGRLVQPGTSLRLSCAVSGFSLSTYAMSWVRQAPGKGLEWIGWIYNDGSTYYAAWAKGRFTISKDTSKTTLYLQMNSLTVEDTATYFCAREGDYIGYFNIWGQGTLVTVSS VL: DVVMTQTPSSVSAALGGTVTIKCQASQSIGSNLAWYQLKPGQRPKLLIYAAATLASGGSSRFKGSGSGTDFTLTISSLEPADAATYYCQSYVSGSSDVAFGGGTEVVVK"
8290,7640,2.88,4.56,10200,0.35,"B2H4-25 (antibody, V domains shown, Humanized variant, human IgG4 / kappa) VH: EVQLVESGGDLATPGGSLRLSCAVSGFSLSTYAMSWVRQAPGKGLEWVGWIYNDGSTYYAAWAKGRFTISKDTSKTTVYLQMTSLRAEDTALYFCAREGDYIGYFNIWGQGTLVTVSS VL: DVVMTQTPSSVSAALGGTVTIKCQASQSIGSNLAWYQLKPGQRPKLLIYAAATLASGGSSRFKGSGSGTDFTLTISSLEPADAATYYCQSYVSGSSDVAFGGGTEVVVK"
7290,7040,2.84,4.6,10900,0.31,"B2H4-44 (antibody, V domains shown, Humanized variant, human IgG4 / kappa) VH: EVQLLESGGRLVQPGTSLRLSCAVSGFSLSTYAMSWVRQAPGKGLEWIGWIYNDGSTYYAAWAKGRFTISKDTSKTTLYLQMNSLTVEDTATYFCAREGDYIGYFNIWGQGTLVTVSS VL: DIQMTQSPSSVSASVGDRVTITCQASQSIGSNLAWYQQKPGKAPKLLIYAAATLASGVPLRFSGSGSGTDFTLTISNLQPEDSATYYCQSYVSGSSDVAFGGGTKVEIK"
9050,8110,3.27,3.85,10700,0.37,"B2H4-51 (antibody, V domains shown, Humanized variant, human IgG4 / kappa) VH: EVQLLESGGGLVQPGTSLTLSCAASGFSLSTYAMSWVRQAPGKGLEWIGWIYNDGSTYYAAWAKGRFTISKDTSKTTLYLQITSLRAEDTATYFCAREGDYIGYFNIWGQGTLVTVSS VL: DIQMTQSPSSLSASVGDRVTITCQASQSIGSNLAWYQLKPGQRPKLLIYAAATLASGVPSRFKGSGSGTDFTLTISSLQSEDAATYYCQSYVSGSSDVAFGGGTEVVVK"
7990,7310,3.98,4.2,9840,0.32,"B2H4-11 (antibody, V domains shown, Humanized variant, human IgG4 / kappa) VH: QVQLEESGGRVVQPGRSLRLSCAASGFSLSTYAMSWVRQAPGKGLEWIGWIYNDGSTYYAAWAKGRFTISKDTSKTTVFLQMNSLKPDDTATYFCAREGDYIGYFNIWGQGTLVTVSS VL: DIQMTQSPSSLSASVGDRVTITCQASQSIGSNLAWYQLKPGQRPKLLIYAAATLASGVPSRFKGSGSGTDFTLTISSLQSEDAATYYCQSYVSGSSDVAFGGGTEVVVK"
